Tests used:
MKK7β(h) = MKK7β(h) (Homo sapiens, UniProt O14733); assay: Kinase Profiling Assay; format: biochemical
[1] = human, HCAVSMCs, 10 μM, intracellular half-life (t1/2), fluorescence 0 and 5 days after treatment removal
Description: HCAVSMCs were grown to 80-90% confluence, harvested, and seeded at 20,000 cells/well in a 24 well plate and allowed to adhere overnight in low serum media (DMEM, 1% FBS, and 1% P/S). […] Following treatment, cells were washed with PBS −/−, washed with CellScrub buffer (Genlantis) for 10 minutes at room temperature to remove extracellular polyplexes and/or peptide, washed 2× in PBS −/−, and given fresh complete growth media. Cells were then incubated for an additional 0, 12, 24, 72, or 120 hours. Cells were then washed with PBS −/−, trypsinized, and resuspended in 0.1% Trypan blue in PBS (−/−) for analysis on a FACSCalibur flow cytometer (Becton Dickinson) with BD CellQuest™ Pro software (V 5.2). Data was exported and analyzed with FlowJo software (V 7.6.4). All samples were run in triplicate.

IGF-1R(h) = IGF-1R(h) (Homo sapiens, UniProt P08069); assay: Kinase Profiling Assay; format: biochemical; settings: 100 μM
CK1γ1(h) = CK1γ1(h) (Homo sapiens, UniProt Q9HCP0); assay: Kinase Profiling Assay; format: biochemical; settings: 100 μM
Yes(h) = Yes(h) (Homo sapiens, UniProt P07947); assay: Kinase Profiling Assay; format: biochemical; settings: 100 μM
Fgr(h) = Fgr(h) (Homo sapiens, UniProt P09769); assay: Kinase Profiling Assay; format: biochemical; settings: 100 μM
GRK5(h) = GRK5(h) (Homo sapiens, UniProt P34947); assay: Kinase Profiling Assay; format: biochemical; settings: 100 μM
PAK3(h) = PAK3(h) (Homo sapiens, UniProt O75914); assay: Kinase Profiling Assay; format: biochemical; settings: 100 μM
Ab1(M351T)(h) = Ab1(M351T)(h) (Homo sapiens, UniProt P00519, M351T); assay: Kinase Profiling Assay; format: biochemical; settings: 100 μM
VRK2(h) = VRK2(h) (Homo sapiens, UniProt Q86Y07); assay: Kinase Profiling Assay; format: biochemical; settings: 100 μM
GSK3α(h) = GSK3α(h) (Homo sapiens, UniProt P49840); assay: Kinase Profiling Assay; format: biochemical; settings: 100 μM
PKBγ(h) = PKBγ(h) (Homo sapiens, UniProt Q9Y243); assay: Kinase Profiling Assay; format: biochemical; settings: 100 μM
CHK2(h) = CHK2(h) (Homo sapiens, UniProt O96017); assay: Kinase Profiling Assay; format: biochemical; settings: 100 μM
Plk3(h) = Plk3(h) (Homo sapiens, UniProt Q9H4B4); assay: Kinase Profiling Assay; format: biochemical; settings: 100 μM
CDK9/cyclin T1(h) = CDK9/cyclin T1(h) (Homo sapiens, UniProt P50750); assay: Kinase Profiling Assay; format: biochemical; settings: 100 μM
JNK2α2(h) = JNK2α2(h) (Homo sapiens, UniProt P45984); assay: Kinase Profiling Assay; format: biochemical; settings: 100 μM
EphA1(h) = molecular target: T1, EphA1(h) (Homo sapiens, UniProt P21709); assay: Kinase Profiling Assay; format: biochemical; settings: 100 μM
T1 sequence (P21709 26-976): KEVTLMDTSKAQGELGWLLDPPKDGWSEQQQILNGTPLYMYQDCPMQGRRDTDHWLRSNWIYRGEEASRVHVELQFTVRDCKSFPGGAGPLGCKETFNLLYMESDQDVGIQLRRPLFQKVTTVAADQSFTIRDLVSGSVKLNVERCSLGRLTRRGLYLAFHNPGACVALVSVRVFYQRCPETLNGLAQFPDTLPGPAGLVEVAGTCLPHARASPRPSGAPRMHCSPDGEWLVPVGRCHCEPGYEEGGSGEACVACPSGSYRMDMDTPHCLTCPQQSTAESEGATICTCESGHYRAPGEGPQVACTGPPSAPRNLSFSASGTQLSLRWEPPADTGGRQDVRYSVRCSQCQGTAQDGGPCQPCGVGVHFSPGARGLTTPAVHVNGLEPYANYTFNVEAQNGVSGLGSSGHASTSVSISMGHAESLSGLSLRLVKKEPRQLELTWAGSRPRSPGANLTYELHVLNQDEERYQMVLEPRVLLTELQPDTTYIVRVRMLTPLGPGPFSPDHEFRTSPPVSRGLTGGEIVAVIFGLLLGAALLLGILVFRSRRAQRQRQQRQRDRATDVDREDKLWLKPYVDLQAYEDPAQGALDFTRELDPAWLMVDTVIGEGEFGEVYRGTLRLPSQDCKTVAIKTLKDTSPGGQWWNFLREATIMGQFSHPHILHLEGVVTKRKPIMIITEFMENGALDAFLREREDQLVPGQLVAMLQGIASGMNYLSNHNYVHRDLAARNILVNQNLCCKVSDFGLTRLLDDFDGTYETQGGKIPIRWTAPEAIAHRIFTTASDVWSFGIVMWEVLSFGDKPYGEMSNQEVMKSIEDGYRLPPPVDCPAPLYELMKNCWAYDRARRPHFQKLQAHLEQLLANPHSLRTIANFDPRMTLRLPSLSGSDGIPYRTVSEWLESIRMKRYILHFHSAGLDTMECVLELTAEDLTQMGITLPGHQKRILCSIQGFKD

MRCKβ(h) = MRCKβ(h) (Homo sapiens, UniProt Q9Y5S2); assay: Kinase Profiling Assay; format: biochemical; settings: 100 μM
CDK2/cyclinE(h) = CDK2/cyclinE(h) (Homo sapiens, UniProt P24941); assay: Kinase Profiling Assay; format: biochemical; settings: 100 μM
MARK1(h) = MARK1(h) (Homo sapiens, UniProt Q9P0L2); assay: Kinase Profiling Assay; format: biochemical; settings: 100 μM
MAPK2(h) = MAPK2(h) (Homo sapiens, UniProt P28482); assay: Kinase Profiling Assay; format: biochemical; settings: 100 μM
eEF-2K(h) = eEF-2K(h) (Homo sapiens, UniProt O00418); assay: Kinase Profiling Assay; format: biochemical; settings: 100 μM
CDK3/cyclinE(h) = CDK3/cyclinE(h) (Homo sapiens, UniProt Q00526); assay: Kinase Profiling Assay; format: biochemical; settings: 100 μM

Chain of PKBγ(h) (Q9Y243 whole entry): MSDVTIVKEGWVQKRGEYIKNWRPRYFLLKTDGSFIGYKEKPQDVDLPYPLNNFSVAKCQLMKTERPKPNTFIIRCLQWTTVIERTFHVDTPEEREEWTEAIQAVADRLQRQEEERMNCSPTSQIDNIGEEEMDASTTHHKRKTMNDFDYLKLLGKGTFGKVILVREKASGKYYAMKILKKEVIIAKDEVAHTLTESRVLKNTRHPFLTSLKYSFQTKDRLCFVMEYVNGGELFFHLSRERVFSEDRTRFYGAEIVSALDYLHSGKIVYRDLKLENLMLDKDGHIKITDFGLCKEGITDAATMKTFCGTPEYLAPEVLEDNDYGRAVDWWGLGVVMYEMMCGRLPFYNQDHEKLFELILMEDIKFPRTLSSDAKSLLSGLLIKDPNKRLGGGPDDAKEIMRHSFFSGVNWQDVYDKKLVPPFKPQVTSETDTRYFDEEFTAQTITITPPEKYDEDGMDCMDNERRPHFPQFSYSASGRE
Chain of VRK2(h) (Q86Y07 whole entry): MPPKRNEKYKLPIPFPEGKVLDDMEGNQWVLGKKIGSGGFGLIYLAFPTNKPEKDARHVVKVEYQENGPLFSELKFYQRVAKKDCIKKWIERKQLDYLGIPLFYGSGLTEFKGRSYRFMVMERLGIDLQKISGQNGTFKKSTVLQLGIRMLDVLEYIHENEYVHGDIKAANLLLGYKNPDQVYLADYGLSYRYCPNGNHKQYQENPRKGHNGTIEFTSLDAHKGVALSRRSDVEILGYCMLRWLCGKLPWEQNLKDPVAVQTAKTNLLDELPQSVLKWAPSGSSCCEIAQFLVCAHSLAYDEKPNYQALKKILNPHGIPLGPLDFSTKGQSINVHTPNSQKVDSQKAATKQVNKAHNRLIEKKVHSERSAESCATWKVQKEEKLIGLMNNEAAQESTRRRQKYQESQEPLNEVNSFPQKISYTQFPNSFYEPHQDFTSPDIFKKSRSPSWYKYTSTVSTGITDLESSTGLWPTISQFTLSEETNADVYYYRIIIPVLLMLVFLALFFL
Chain of MARK1(h) (Q9P0L2 whole entry): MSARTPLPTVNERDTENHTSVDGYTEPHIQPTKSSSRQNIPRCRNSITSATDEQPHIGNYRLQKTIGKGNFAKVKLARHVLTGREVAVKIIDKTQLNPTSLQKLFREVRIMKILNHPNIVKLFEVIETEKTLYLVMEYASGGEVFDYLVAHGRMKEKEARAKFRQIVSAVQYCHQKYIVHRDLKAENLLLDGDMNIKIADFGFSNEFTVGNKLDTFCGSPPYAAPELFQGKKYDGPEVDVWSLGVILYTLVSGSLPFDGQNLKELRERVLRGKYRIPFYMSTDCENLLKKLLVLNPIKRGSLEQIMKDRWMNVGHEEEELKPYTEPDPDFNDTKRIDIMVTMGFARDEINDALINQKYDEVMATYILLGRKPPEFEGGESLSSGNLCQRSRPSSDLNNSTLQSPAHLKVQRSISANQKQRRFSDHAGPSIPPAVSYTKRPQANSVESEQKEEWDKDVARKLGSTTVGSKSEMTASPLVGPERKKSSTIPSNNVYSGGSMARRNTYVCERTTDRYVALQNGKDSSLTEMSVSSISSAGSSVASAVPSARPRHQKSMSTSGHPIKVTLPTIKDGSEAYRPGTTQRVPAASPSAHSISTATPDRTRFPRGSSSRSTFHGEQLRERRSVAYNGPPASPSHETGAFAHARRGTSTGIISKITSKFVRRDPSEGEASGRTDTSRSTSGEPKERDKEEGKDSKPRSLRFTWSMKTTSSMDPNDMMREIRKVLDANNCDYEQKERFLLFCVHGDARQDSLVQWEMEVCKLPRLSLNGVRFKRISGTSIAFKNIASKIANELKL
Chain of MKK7β(h) (O14733 whole entry): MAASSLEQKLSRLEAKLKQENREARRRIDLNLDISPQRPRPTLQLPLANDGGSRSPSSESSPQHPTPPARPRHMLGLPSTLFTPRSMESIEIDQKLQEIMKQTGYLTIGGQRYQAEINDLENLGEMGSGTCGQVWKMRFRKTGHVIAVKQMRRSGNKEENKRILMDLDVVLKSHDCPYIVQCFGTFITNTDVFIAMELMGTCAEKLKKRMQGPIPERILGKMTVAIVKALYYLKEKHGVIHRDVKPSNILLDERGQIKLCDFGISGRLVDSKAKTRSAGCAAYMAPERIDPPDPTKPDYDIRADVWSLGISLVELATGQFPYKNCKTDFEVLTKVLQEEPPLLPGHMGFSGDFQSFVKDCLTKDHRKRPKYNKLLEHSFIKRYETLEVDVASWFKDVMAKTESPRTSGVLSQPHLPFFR
Chain of MRCKβ(h) (Q9Y5S2 whole entry): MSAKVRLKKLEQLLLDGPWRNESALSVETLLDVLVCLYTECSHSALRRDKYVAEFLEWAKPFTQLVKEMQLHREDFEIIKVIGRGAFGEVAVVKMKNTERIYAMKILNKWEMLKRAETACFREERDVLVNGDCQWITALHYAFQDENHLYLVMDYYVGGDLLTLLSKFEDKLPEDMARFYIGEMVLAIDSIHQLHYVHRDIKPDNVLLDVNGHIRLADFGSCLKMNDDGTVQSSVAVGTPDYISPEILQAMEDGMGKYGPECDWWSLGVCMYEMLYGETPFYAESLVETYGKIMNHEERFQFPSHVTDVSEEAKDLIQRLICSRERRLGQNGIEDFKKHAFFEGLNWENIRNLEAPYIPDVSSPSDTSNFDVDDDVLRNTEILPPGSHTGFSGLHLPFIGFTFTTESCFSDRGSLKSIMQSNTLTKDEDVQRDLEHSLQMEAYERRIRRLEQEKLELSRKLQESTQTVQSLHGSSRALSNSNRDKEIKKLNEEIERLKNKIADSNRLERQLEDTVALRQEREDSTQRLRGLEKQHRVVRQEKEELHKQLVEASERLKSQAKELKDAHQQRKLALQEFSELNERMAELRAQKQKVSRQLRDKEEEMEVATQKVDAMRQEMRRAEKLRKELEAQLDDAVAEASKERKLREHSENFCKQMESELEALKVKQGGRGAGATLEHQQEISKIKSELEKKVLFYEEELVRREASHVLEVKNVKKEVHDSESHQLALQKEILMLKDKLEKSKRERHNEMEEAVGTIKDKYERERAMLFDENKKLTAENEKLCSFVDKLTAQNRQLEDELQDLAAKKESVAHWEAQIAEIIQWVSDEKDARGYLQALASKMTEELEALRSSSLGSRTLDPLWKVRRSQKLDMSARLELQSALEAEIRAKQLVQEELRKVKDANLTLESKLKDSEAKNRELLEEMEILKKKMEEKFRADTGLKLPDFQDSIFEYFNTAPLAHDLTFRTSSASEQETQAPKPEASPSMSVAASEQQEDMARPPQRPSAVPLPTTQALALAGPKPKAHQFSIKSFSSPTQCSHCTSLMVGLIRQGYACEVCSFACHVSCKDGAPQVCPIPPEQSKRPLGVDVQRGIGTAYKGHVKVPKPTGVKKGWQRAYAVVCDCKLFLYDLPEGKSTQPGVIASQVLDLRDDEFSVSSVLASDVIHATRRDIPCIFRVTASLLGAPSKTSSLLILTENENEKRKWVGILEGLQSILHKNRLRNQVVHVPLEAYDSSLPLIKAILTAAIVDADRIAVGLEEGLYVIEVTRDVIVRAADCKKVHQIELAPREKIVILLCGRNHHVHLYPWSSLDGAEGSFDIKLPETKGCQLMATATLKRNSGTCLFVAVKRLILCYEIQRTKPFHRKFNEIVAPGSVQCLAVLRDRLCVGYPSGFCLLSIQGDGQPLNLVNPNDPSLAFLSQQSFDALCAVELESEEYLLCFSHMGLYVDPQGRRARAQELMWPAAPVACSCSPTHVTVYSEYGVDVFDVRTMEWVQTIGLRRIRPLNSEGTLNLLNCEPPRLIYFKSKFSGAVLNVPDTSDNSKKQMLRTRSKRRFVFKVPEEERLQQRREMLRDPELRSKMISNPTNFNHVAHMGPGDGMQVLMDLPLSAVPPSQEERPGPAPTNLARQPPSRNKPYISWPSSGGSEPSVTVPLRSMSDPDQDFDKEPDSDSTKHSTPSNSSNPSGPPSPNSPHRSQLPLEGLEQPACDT
Chain of Yes(h) (P07947 whole entry): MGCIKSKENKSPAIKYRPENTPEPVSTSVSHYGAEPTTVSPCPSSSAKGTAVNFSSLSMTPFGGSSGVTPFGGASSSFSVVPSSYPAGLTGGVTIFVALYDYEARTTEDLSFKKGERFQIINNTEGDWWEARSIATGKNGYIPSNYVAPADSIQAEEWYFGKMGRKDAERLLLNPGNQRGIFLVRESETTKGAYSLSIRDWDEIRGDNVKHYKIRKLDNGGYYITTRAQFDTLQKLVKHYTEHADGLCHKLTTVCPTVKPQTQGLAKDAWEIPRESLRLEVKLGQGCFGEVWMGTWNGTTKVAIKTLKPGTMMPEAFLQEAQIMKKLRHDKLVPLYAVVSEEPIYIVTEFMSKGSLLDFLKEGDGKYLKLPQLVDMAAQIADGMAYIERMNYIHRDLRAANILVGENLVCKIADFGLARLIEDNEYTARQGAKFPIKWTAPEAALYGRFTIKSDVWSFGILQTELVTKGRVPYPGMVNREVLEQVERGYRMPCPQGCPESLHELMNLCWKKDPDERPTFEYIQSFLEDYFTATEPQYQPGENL
Chain of MAPK2(h) (P28482 whole entry): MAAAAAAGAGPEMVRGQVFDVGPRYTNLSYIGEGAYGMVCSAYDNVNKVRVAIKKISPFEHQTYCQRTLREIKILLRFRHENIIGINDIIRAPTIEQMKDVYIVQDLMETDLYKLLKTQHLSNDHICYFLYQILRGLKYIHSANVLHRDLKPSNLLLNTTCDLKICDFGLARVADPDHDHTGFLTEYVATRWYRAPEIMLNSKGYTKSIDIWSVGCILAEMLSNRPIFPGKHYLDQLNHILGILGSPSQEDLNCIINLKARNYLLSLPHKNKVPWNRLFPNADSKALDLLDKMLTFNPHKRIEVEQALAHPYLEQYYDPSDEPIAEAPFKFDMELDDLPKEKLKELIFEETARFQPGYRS

Substance: H-YARAAARQARAKALARQLGVAA-OH [MMI-0100]
- activity at 100 µM (MKK7β(h)): 137%
- half-life [1]: 96 h

Substance: YARAAARQARAKALNRQLGVA (Mammalian) [MMI-0200]
- % activity (IGF-1R(h)): 49%
- % activity (CK1γ1(h)): 98%
- % activity (Yes(h)): 93%
- % activity (Fgr(h)): 71%
- % activity (GRK5(h)): 135%
- % activity (PAK3(h)): 50%

Substance: HRRIKAWLKKIKALARQLGVAA (Mammalian) [MMI-0500]
- % activity (Ab1(M351T)(h)): 61%
- % activity (VRK2(h)): 169%
- % activity (GSK3α(h)): 175%
- % activity (PKBγ(h)): 20%
- % activity (CHK2(h)): 13%
- % activity (Plk3(h)): 122%
- % activity (CDK9/cyclin T1(h)): 6%
- % activity (JNK2α2(h)): 81%
- % activity (EphA1(h)): 40%
- % activity (MRCKβ(h)): -10%
- % activity (CDK2/cyclinE(h)): 19%
- % activity (MARK1(h)): 110%
- % activity (MAPK2(h)): 60%
- % activity (eEF-2K(h)): 43%
- % activity (CDK3/cyclinE(h)): 8%

— patent publication US10087225B2, “Formulation of MK2 inhibitor peptides” (MOERAE MATRIX, INC., priority 2015, dated 2018)
